This is an account of results in patent US6991908 (Takeda / Millennium, dated 2006).

Positions of bridges follow the written chain, without caps; N, C: chain ends. No end group written: not given here.

Test [1] has as its target rat SLC-1 (rat, UniProt P97639 1-353). The test is described as follows: cell-based or functional assay.
For test [2], the target named is T1, human SLC-1 (human).
T1 construct: also called hSLC-1; human SLC-1(S)
Put plainly: radioligand competition against [125I]-labeled MCH(4-19) on human SLC-1-expression CHO cell membrane fraction (2.5 µg/ml), filtration, γ-counter.

B1: Des-[Asp1, Phe2, Asp3, Met4, Leu5]-MCH (MCH(6-19)) (peptide)
peptide: RCMLGRVYRPCWQV
modifications: disulfide 2-11
Turning to B1, in test [1], the “agonist activity, GTPγS binding assay (fold decrease against MCH)” value was ~10 times.

B2: Des-[Asp1, Phe2, Asp3, Met4, Leu5, Arg6]-MCH (MCH(7-19)) (peptide)
peptide: CMLGRVYRPCWQV
modifications: disulfide 1-10
Take B2: the “agonist activity, GTPγS binding assay (fold decrease against MCH)” value in test [1] is ~200 times.

B3: melanin concentrating hormone (MCH), rat MCH (ligand)
peptide: DFDMLRCMLGRVYRPCWQV
modifications: disulfide 7-16
notes: also called synthetic MCH; synthetic rat MCH
For orientation: IC50 means the point on the concentration scale where inhibition reaches its midpoint. Low readings indicate higher potency, high ones lower potency. As to B3, the concentration for half-maximal inhibition (IC50) in test [2] amounted to 0.2 nM.
